Laboratory results taken from patent US20240279332A1 (Amgen, published 2024).
Changes are numbered by the printed parent chain.

B1: 44A5 (antibody, V domains shown)
VH: EVQLLESGGGLVQPGGSLRLSCAASGFTFSTYAMNWVRQAPGKGLEWVSTVSGSGRPTYYADSVKGRFTISRDNSKNTLYLQMNSLRAEDTAVYYCAKAYYSNYLFDYWGQGTLVTVSS
VL: EIVMTQSPAILSVSPGERATLSCRASQSVSSNLAWYQQKPGQAPRLLIYGASTRATGVPARFSGGGSGTDFTLTISSLQSEDFAVYYCQHCKTWPPLTFGGGTKVDLKR
B2: 57C10 (antibody, V domains shown)
VH: QVQLVQSGAEVKKPGASVKVSCKASGYTFTRYDINWVRQATGQGLEWMGWLNPNSGNTGQTQKFRGRVTMTRNTSINTAYMELSSLRSEDTAVYYCARGGYTSAWRWYFDLWGRGTLVTVSS
VL: DIQMTQSPSSLSASVGDRVTITCQASQDINNHLNWYQQKPGKAPKLLIYDVSNLETGVPSSFSGSGCGTDFTFTISSLQPEDIATYFCQQYDKLPLTFGGGTKVEIEG
B3: 63F8 (antibody, V domains shown)
VH: QVQLVQSGAEVKKPGASVKVSCKASGYTFTSYDINWVRQATGQGLEWMGRMNPKSGNAGYVQNFRGRVTMTRNTSISTAYMELSSLRSEDTAVYYCARGGRTSIWSFVFDYWGQGTLVTVSS
VL: B2 VL with N30S, N31K, V51T, S61R, C67S, F87N, E107K, G108R
B4: 61B12 (antibody, V domains shown)
VH: QVQLVQSGAEVTKPGASVKVSCKASGYTFTRYDINWVRQATGQGLEWMGWMNPNSGNSGSVQKFRGRVTMTRNTSITTVYMELSSLRSDDTAVYYCARGGISSSWHWAFDIWGQGTMVTVSS
VL: B2 VL with D50G, V51A, S52Y, N53T, S61R, C67S, F87Y, E107K, G108R
B5: 50A12 (antibody, V domains shown)
VH: EVQLVESGGGLVQPGGSLRLSCAASGFTFSSYWMSWVRQAPGKGLEWVANIKQDGSEEYYVDSVKGRFTISRDNAKNSLFLQMNSLRAEDTAVYYCARDYGDSFDYWGQGTLVTVSS
VL: DIQMTQSPSSVSASVGDRVTITCRASQGIRKWLAWYQQKPGRAPKLLIYAASRLQSGVPSRFSGSGSGTDFTLTISSLRPEDFATYYCLQAHGFPWTFGQGTKVEIKR
B6: 30H2 (antibody, V domains shown)
VH: EVQVLESGGGLVQPGESLRLSCTASGFTFNAYAMSWVRQAPGKGLEWVSTISGSGSTTYYADSVKGRFTISRDNSKNTLDLQMNSLRAADTAVYYCAKVAGSNFFFDHWGQGTLVTVSS
VL: EIVMTQSPATLSVSPGERATLSCRASQSINSNLAWYQQKPGQAPRLLIYGAYTRATGIPDRFSGSGSGTEFTLTISSLQSEDFAVYYCQEFIMWPPWTFGLGTQVEIKR
B7: 46H7 (antibody, V domains shown)
VH: EVQLLESGGGMVQPGGSLRLSCAVSGFTFSRYAMSWVRQAPGKGLEWVSEMRGSSGSTYYADSVKGRFTISRDNSKNTLYLQMNSLRVEDTAIYYCAKEFSSNSLFDYWGQGTLVTVSS
VL: B6 VL with I29V, Q42R, Y52S, D60A, E90Q, I92Y, M93N, L101Q, Q104K
B8: 61G5 (antibody, V domains shown)
VH: QVQLVQSGAEVKKPGASVKVSCKASGYTFTSYDINWVRQATGQGLEWMGWMNPNSGNSGSVKKFRDRVTMTRNTSISTAYMELSSLRSEDTAVYYCVRLIGYSSAWKWSFQHWGQGTLVTVSS
VL: DIQMTQSPSSLSASVGDRVTITCQASRDISKYLNWYQQKPGKAPKLQIYDASNLETGVPSRFSGSGSGTDFTFTISSLQPEDIATYYCQHYDNIPITFGQGTRLEIKR
B9: 66B8 (antibody, V domains shown)
VH: QVQLVQSGAEVKKPGASVKVSCKASGYTFTGYYMHWVRQAPGQGLEWMGWFKPNSGVTNYAQKFQGRVTMSRDTSISTAYMELSSLRSDDTAVYYCARAGYSTSWKDWFDPWGQGTLVTVSS
VL: DIQMTQFPSSVSASVGDRVTITCRASQGISRWLAWYQQKQGKAPKLLIYMVSSLQSGVPSRFSGSGSGTDFTLTISSLQPEDFATYYCQQSHNFPITFGQGTRLDIKR
B10: 49A2 (antibody, V domains shown)
VH: EVQLVESGGGLVQPGGSLRLSCAASGFTFSSNWMSWVRQAPGKGLDWMASMKQDGSEIYYVDSVKGRFTISRDNAKNSLHLQMNSLRAEDTAVYYCVRGGWRFESWGQGALVTVSS
VL: EIVMTQSPATLSVSPGERATLSCRASQSVSSNLAWYQQKSGQAPRLLIYGASIRATGIPARVSGSGSGTEFTFTISSLQSEDFAVYYCQQYKNWPLTLGGGTKVEIKR
B11: 64D7 (antibody, V domains shown)
VH: QVQLVQSGAEVKKPGASVKVSCKASGYTFTSYDINWVRQATGQGLEWMGWMNPNRGNTGYVKKFQGRVTMTRNTSISTAYMELSSLRSEDTAVYYCARRRAVYRSSWEWYFDLWGRGTLVTVSS
VL: DTQMTQSPSSLSASEGDRVTITCQASQDIFNDLNWYQEKPGKAPKLLIYHASNLETGVPSRFSGSGSGTDYTFTISSLQPEDIATYYCQQYGNLPLTFGGGTKVEIKR

molecular target: T1, cyno TREM-1 on cells (cynomolgus monkey, UniProt A0A2K5VHG8 21-233); assay: cell-based or functional assay
T1 sequence: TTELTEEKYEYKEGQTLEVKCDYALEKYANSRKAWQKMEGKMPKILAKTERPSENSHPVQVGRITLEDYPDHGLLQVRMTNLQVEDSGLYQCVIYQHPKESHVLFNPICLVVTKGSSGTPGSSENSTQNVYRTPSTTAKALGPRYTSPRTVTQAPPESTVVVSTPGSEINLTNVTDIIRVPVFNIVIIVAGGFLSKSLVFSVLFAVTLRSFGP

Row | Binder | Ab IC50-Cyno PBMC (Trial 1), TNFα release after cyno PGLYRP1/PGN [pM] | Ab IC50-Cyno PBMC (Trial 2), TNFα release after cyno PGLYRP1/PGN [pM]
1 | B1 | 57.9 | 9.1
2 | B2 | 154 | 28.4
3 | B3 | 22.6 | 16.1
4 | B4 | 46.9 | 17.4
5 | B5 | 2000 | 
6 | B6 | 3770 | 
7 | B7 | 95.1 | 9.7
8 | B8 |  | 2340
9 | B9 | 114 | 23.2
10 | B10 | 732 | 266
11 | B11 | 6940 | 780
